The results in this text go back to patent publication US20210230254A1 (published 2021).

A word on the Kd: it is the concentration at which binding is half-saturated. Usually koff stands for a measure of how fast the partners let go of each other. A low value points to slow dissociation. Broadly, the kon is a measure of how fast the partners come together. A higher kon goes with faster complex formation.

Sequences and labels used below:
B1: 8ANC24 (antibody, V domains shown)
VH: QVQLVQSGAEVKMPGASVKVSCKVSGYSLTELSIHWVRQAPGKRLEWMGGFDPEDDERIYAQKFQDRVTMTEDTSTDTAYMDLNSLRSEDTAVYYCTTGGLYCSSISCIMDVWGQGTTVIVSS
VL: EIVMTQSPATLSMSPGERATLSCRASLSVNTNLAWYQQKPGQAPRLLIYGASTRATGIPARFSGSGSGTEFTLTISSLQSEDFALYYCQQYNHWPQTFGQGTKVEIKR
notes: also called 8ANC24HC; 8ANC24KC
B2: 8ANC5 (antibody, V domains shown)
VH: QVQLVQSGAEVRKPGSSLKVSCKSSGGTFSRFVVNWVRQAPGQGLEWMGGMIPIFGIAKYAQKFQDRVTMTADESKNTVYLDFSSLRSDDTAVYYCARDRGDTRLLDYGDYEDERYYYGMDVWGQGTTVIVSS
VL: DIQMTQSPPSLSASVGDRVTITCQASQDINNFLNWYQQKPGKAPRLLIYDASNLESGVSSRFSGSRSGTDFTLTISSLLPEDIATYSCQQYSNLPYTFSQGTKLEIKR
notes: also called 8ANC5HC; 8ANC5KC
B3: 8ANC50 (antibody, V domains shown)
VH: QGQLVQSGGGVKKPGTSVTISCLASEYTFTEFTIHWIRQAPGQGPLWLGLIKRSGRLMTAYRFQDRLSLRRDRSTGTVFMELRNLRMDDTAVYYCARDGLGELAPAYQYGIDVWGQGTTVIVSS
VL: EIVLTQSPTTLSLSPGERATLSCRASQGVNLVVWYQQKRGQAPRLLIYGPSDRAPGVPDRFSARGSGTEFSLVISSVEPDDFALYYCQEYSSTPYNFGTGTRVDRKR
notes: also called 8ANC50HC; 8ANC50KC
B4: 8ANC14 (antibody, V domains shown)
VH: QVQLVQSGAEVKKPGASVKVSCKVSGYTLTELSIHWVRQAPGKGLEWMGGFDSEDGEAFYKQNFQGRVTMTEDTSTDTAYMELRRLRSEDTAVYYCATADRFKVAQDEGLFVIFDYWGQGTLVTVSS
VL: EIVLTQSPATLSLSPGERATLSCRASQSINNYLAWYQQKPGQAPRLLIYDASNRATGIPARFSGGGSGTDFTLTISSLEPEDFAVYYCQQRANWRLLTFGGGTKVEIKR
notes: also called 8ANC14HC; 8ANC14KC
B5: 3B27 (antibody, V domains shown)
VH: EVQLVESGGGLVQPGGSLRISCSATGFTFSTHAMHWVRQAPGKGLEYVSAINSNGRSAFYADSVKGRVTISRDNSKNTLFLQMTSLRAEDTAVYYCVKGPLLRYLDSWGQGTLVTVSS
VL: EIVLTQSPATLSVSPGERATLSCRAGQSVSSDLAWYQHKPGQAPRLLIYDASKRATGIPARFSGSGSGTDFTLTISSLEPEDFAVYYCQHRTNWPPSITFGQGTRLEIKR
notes: also called 3B27HC; 3b27kc
B6: 3B41 (antibody, V domains shown)
VH: EVQLVQSGAEVKKPGASVKVSCKVSGYTLTELSMHWVRQAPGKGLEWMGVFDPLEGDGVYAEKFRGRVIMTEDTSTDTGYMELTSLRSEDTAIYYCATKAKDYYYESSDYSPYYYYYMDVWGKGTTVTVSS
VL: EIVLTQSPGTLSLSPGERATLSCRASQSVSSNYLAWYQQKPGQAPRLLIYGASSRATGIPDRFSGSGSGTDFTLSISRLEPEDFAVYYCQQYGTSSCTFGQGTKLEIKR
notes: also called 3B41HC; 3b41kc
B7: 12A21 (antibody, V domains shown)
VH: SQHLVQSGTQVKKPGASVRVSCQASGYTFTNYILHWWRQAPGQGLEWMGLIKPVFGAVNYARQFQGRIQLTRDIYREIAFLDLSGLRSDDTAVYYCARDESGDDLKWHLHPWGQGTQVIVSP
VL: DIQMTQSPSSLSASVGDRVTINCQAGQGIGSSLNWYQKKPGRAPKLLVHGASNLQRGVPSRFSGSGFHTTFTLTISSLQPDDVATYFCAVFQWFGPGTKVDIKR
notes: also called 12A21HC; 12a21kc
B8: NIH45-46 (antibody, V domains shown)
VH: QVRLSQSGGQMKKPGESMRLSCRASGYEFLNCPINWIRLAPGRRPEWMGWLKPRGGAVNYARKFQGRVTMTRDVYSDTAFLELRSLTSDDTAVYFCTRGKYCTARDYYNWDFEH
VL: EIVLTQSPATLSLSPGETAIISCRTSQSGSLAWYQQRPGQAPRLVIYSGSTRAAGIPDRFSGSRWGADYNLSISNLESGDFGVYYCQQYEFFG
B9: 1B2530 (antibody, V domains shown)
VH: QVRLEQSGAAMRKPGASVTLSCQASGYNFVKYIIHWVRQKPGLGFEWVGMIDPYRGRPWSAHKFQGRLSLSRDTSMEILYMTLTSLKSDDTATYFCARAEAASDSHSRPIMFDHWGQGSRVTVSS
VL: QSALTQPPSASGAPGQRVTISCSGGPSNVGGNYVYWYRQFPGTAPTLLILRDDQRPSGVPDRFSASKSGNSASLAISGLRPDDEGFYFCATYDSDGSIRLFGGGTALTVLS
notes: also called LSSB2530HC; LSSB2530LC
B10: 1NC9 (antibody, V domains shown)
VH: QVRLVQSGAQLKKPGASVTVSCEASGYNFVNYIINWVRQTPGRSFEWVGMIDPRRGRPWSAQKFQGRLTLTRDIDSEKLYMHLSGLRGDDTAVYYCARQDSDFHDGHGHTLRGMFDSWGQGSPVTVSS
VL: QVLSVSGTPGQRVIISCSGTSSNVGGNLVSWYQHLPGAAPRLLIHRDDQRPSGVPDRFSGSKSGNSASLVISGLRSDDEADYFCAAYDSTFSLPVFGGGTRLTVLS
notes: also called LSSNEC9HC; LSSNEC9LC
B11: 8ANC131 (antibody, V domains shown)
VH: QGQLVQSGGGLKKPGTSVTISCLASEYTFNEFVIHWIRQAPGQGPLWLGLIKRSGRLMTAYNFQDRLRLRRDRSTGTVFMELRGLRPDDTAVYYCARDGLGEVAPDYRYGIDVWGQGSTVIVTA
VL: B3 VL with T9A, V29L, L31F, Y48H, G49A, D52G, L84I, T99P
notes: also called 8ANC131HC; 8ANC131KC
B12: 8ANC134 (antibody, V domains shown)
VH: B11 VH with L11V, L46V, A60S, N62K, R68S, P87L, D106A, R108L, V113A, A124S
VL: B3 VL with T9A, V29L, L31F, R39G, Y48H, S51T, T99P
notes: also called 8ANC134HC; 8ANC134KC
B13: 8ANC195 (antibody, V domains shown)
VH: QIHLVQSGTEVKKPGSSVTVSCKAYGVNTFGLYAVNWVRQAPGQSLEYIGQIWRWKSSASHHFRGRVLISAVDLTGSSPPISSLEIKNLTSDDTAVYFCTTTSTYDKWSGLHHDGVMAFSSWGQGTLISVSA
VL: DIQMTQSPSTLAASIGGTVRVSCRASQSITGNWVAWYQQRPGKAPRLLIYRGAALLGGVPSRFSGSAAGTDFTLTIGNLQAEDFGTFYCQQYDTYPGTFGQGTKVEVKR
notes: also called 8ANC195HC; 8ANC195KC
B14: 12A12 (antibody, V domains shown)
VH: SQQLVQSGTQVKKPGASVRISCQASGYSFTDYVLHWWRQAPGQGLEWMGWIKPVYGARNYARRFQGRINFDRDIYREIAFMDLSGLRSDDTALYFCARDGSGDDTSWHLDPWGQGTLVIVSA
VL: DIQMTQSPSSLSASVGDRVTITCQAGQGIGSSLQWYQQKPGKAPKLLVHGASNLHRGVPSRFSGSGFHTTFSLTISGLQRDDFATYFCAVLEFFGPGTKVEIKR
notes: also called 12A12HC; 12a12kc
B15: 3BNC55 (antibody, V domains shown)
VH: QVQLVQSGTAVKRPGASVRVSCQASGYTFTDYFIYWWRQAPGQGLEWLGWINPLTSQPSYPSRFQGRLTLTRDTFDEMLYMDLRGLRSDDTGIYFCARRHSDYCDFDIWGSGTQIIVSS
VL: DIQMTQSPSSLSASVGDKVTITCQTSAGYLNWYQQRRGRAPKLLMYDGSRLVTGVPSRFSGRRWGTQYNLTIGSLQPEDIATYYCQVYEFFGPGTRLDLKS
notes: also called 3BNC55HC; 3BNC55KC
B16: 3BNC66 (antibody, V domains shown)
VH: QVQLVQSGAALKKPGASLRISCQTYGYKFTDHLIYWWRQAPGQGLEWIGWIKPETGQPSYSYRFQGRVSLTRDTFEEIAFMDLRGLRSDDTAIYFCARRHTDYCVFDVWGSGSQIIVSS
VL: B15 VL with K18T, S26N, A27K, R50K, F59L, S101R
notes: also called 3BNC66HC; 3bnc66kc
B17: 3BNC156 (antibody, V domains shown)
VH: B16 VH with A79V, T101S, V105D, S111G, I115V
VL: B15 VL with K18T, S26N, A27K, R36K, R50K, F59L, S101R
notes: also called 3BNC156HC; 3bnc156kc
B18: 3BNC60 (antibody, V domains shown)
VH: QVHLSQSGAAVTKPGASVRVSCEASGYKISDHFIHWWRQAPGQGLQWVGWINPKTGQPNNPRQFQGRVSLTRQASWDFDTYSFYMDLKAVRSDDTAIYFCARQRSDFWDFDVWGSGTQVTVSSASTKG
VL: DIQMTQSPSSLSARVGDTVTITCQANGYLNWYQQRRGKAPKLLIYDGSKLERGVPARFSGRRWGQEYNLTINNLQPEDVATYFCQVYEFIVPGTRLDLKRTVAA
notes: also called 3BNC60HC; 3BNC60KC
B19: 3BNC117 (antibody, V domains shown)
VH: B18 VH with H3Q, S5L, K28N, S30R, H32Y, Q73H, Y81F, V90L, I97V, F107Y
VL: DIQMTQSPSSLSASVGDTVTITCQANGYLNWYQQRRGKAPKLLIYDGSKLERGVPSRFSGRRWGQEYNLTINNLQPEDIATYFCQVYEFVVPGTRLDLKRTVAAPSVFIFPPSD
notes: also called 3BNC117HC; 3bnc117kc

Substitutions are numbered along the chain they refer to.

The first test addresses T1, YU2 gp120 (HIV-1 YU2, UniProt P35961 32-498).
T1 construct: domain: gp120
Kind of test: ELISA, column Binding.
Protocol: (§1) ELISAs. […] After washing, plates were blocked 2 h with 2% BSA, 1 μM EDTA, 0.05% Tween-PBS (Blocking buffer) and then, incubated 2h with IgG antibodies diluted at 4 μg/ml and several consecutive 1:4 dilutions in PBS. After washing, the plates were developed by incubation for 1 h with goat HRP-conjugated anti-mouse IgG (Jackson ImmunoReseach) (at 0.8 μg/ml in blocking buffer) and by adding 100 μl of HRP chromogenic substrate (ABTS solution, Invitrogen). […] Background values given by incubation of PBS alone in coated wells were subtracted. […] Threshold values for reactivity were determined by using control antibodies mGO53 (negative), eiJB40 (low positive), and ED38 (high positive).
For the molecule B1, the binding result is “binds”.
Still for that read-out and setting: the same measure for B2: “binds”; for B3: “binds”.
The same measure, in the same setting: the entry for B4 is “binds”.

Another test addresses T1, YU2 gp120. The test can be described thus: ELISA, column Binding. The source holds these as a separate data set. On the technique in general: ELISA stands for enzyme-linked immunosorbent assay.
Protocol: as §1
For B5, the binding result was “binds”.
Still for that read-out and setting: the entry for B6 is “binds”.

A further test has as its target T2, YU-2 gp140 (HIV-1 YU2, UniProt P35961 32-670).
T2 construct: domain: gp140; also called YU2 gp140 trimer
The test can be described thus: SPR, gp140 on chip, IgG injected; minus sign of the exponent missing in print (kd/ka gives 3.75e-12). Background: In SPR one partner is held on a chip, and binding of the other changes the refractive index at the surface.
In turn, B7 displayed a Kd of 0.00375 nM. This counts as picomolar.

The target of the next test is T2, YU-2 gp140. The test can be described thus: SPR, gp140 on chip, IgG injected.
B8 yielded a Kd of 6.75 nM, a koff of 0.000287 s⁻¹ and a kon of 42600 M⁻¹ s⁻¹.
The corresponding values for B9 are 34.2 nM, 0.00162 s⁻¹ and 47400 M⁻¹ s⁻¹.
In turn, B10 yielded a Kd of 12 nM, a koff of 0.000581 s⁻¹ and an association rate constant (kon) of 48300 M⁻¹ s⁻¹.
B11 registered a dissociation constant Kd of 16.5 nM, a koff of 0.00109 s⁻¹ and a kon of 65900 M⁻¹ s⁻¹.
In turn, B12 gave a Kd of 113 nM, an off-rate (koff) of 0.00174 s⁻¹ and an on-rate constant (kon) of 15500 M⁻¹ s⁻¹.
The corresponding values for B13 are 34.3 nM, 0.00167 s⁻¹ and 48800 M⁻¹ s⁻¹.
Turning to B14, binding was put at a Kd of 0.315 nM, the koff was 1.44e-05 s⁻¹ and the association rate constant (kon) came to 45900 M⁻¹ s⁻¹.
The corresponding values for B15 are 57.8 nM, 0.000755 s⁻¹ and 13100 M⁻¹ s⁻¹.
The corresponding values for B16 are 88.1 nM, 0.00141 s⁻¹ and 16000 M⁻¹ s⁻¹.
B17 had a Kd of 175 nM, a koff of 0.00198 s⁻¹ and a kon of 11300 M⁻¹ s⁻¹.
Turning to B7, the dissociation rate constant (koff) is 3.44e-07 s⁻¹ and the association rate constant (kon) turned out to be 91800 M⁻¹ s⁻¹.
In turn, B18 came in with a Kd of 6.81 nM, a koff of 0.000186 s⁻¹ and a kon of 27300 M⁻¹ s⁻¹.
The corresponding values for B19 are 6.54 nM, 0.000199 s⁻¹ and 30400 M⁻¹ s⁻¹.
